The chains are these.
B1: TPR 5TU (parent)
chain: GGAUCUUCUCGAUCUAACAAAAAAGACAAAUCUGCCACAAAGCUUGAGAGCAUCUUCGGAUGCAGAGGCGGCAGCCUUCGGUGGCGCGAUAGCGCCAACGUUCUCAACUAUGACACGCAAAACGCGUGCUCCGUUGAAUGGAGUUUAUCAUG

Fewer inactive variants are shown than the library holds.

In the data set the parent is B1. Nature of the data set: polymerase ribozyme fitness, log enrichment relative to wild type (log ratio); higher = more active; in vitro selection for triplet polymerase activity. The procedure, abridged:
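Mutant libraries for each subunit of a heterodimeric triplet polymerase ribozyme were made by PCR and then transcribed. Each library underwent one round of in vitro selection in triplicate: annealing with a biotinylated primer, the partner subunit and triplets, frozen incubation at −7 °C, gel excision of extended constructs, streptavidin-bead capture and RT-PCR. Input and output libraries were Illumina-sequenced, and only genotypes with ≥10 input reads and ≥1 read per output were kept. Fitness is the logarithm, base 2, of genotype enrichment over wild-type enrichment, computed from inverse-variance-weighted replicate averages.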
For the variant A28C G42A A113U C116U, the “polymerase ribozyme fitness (log ratio)” value is ≤ -4.2.

As to A26U C103A, the “polymerase ribozyme fitness (log ratio)” value is ≤ -4.2.

Regarding A26G A41G A60U U90G C99A G143U U151C, the “polymerase ribozyme fitness (log ratio)” value is ≤ -4.2.

Regarding C27U C54G C87U G92A C118A U144G, the “polymerase ribozyme fitness (log ratio)” value is -3.12.

With A26U C76A G86C G92C C95A U144G, the “polymerase ribozyme fitness (log ratio)” value is ≤ -4.2.

In the case of A26C A41U, the “polymerase ribozyme fitness (log ratio)” value was -3.05.

C27U A41C A73G C75U C93A: the “polymerase ribozyme fitness (log ratio)” value is ≤ -4.2.

As for A28U C35U C87G C103U A121G A122G, the “polymerase ribozyme fitness (log ratio)” value was ≤ -4.2.

In the case of C27U A52G U53A C118G, the “polymerase ribozyme fitness (log ratio)” value was -2.63.

In the case of A28U G42C G83C A121U, the “polymerase ribozyme fitness (log ratio)” value was ≤ -4.2.

On to A26G U53A, for which the “polymerase ribozyme fitness (log ratio)” value is -4.06.

For A26G G46U A52G C116U G140C G143C, the “polymerase ribozyme fitness (log ratio)” value is ≤ -4.2.

On to G25U G86A, for which the “polymerase ribozyme fitness (log ratio)” value is -3.14.

C27A C32U C95G A115C A122U C129A C131A: the “polymerase ribozyme fitness (log ratio)” value was ≤ -4.2.

Consider A26G C87G U127A C129G, for which the “polymerase ribozyme fitness (log ratio)” value is ≤ -4.2.

For the variant A26G C54G C57U C96U C132U, the “polymerase ribozyme fitness (log ratio)” value is ≤ -4.2.

For the variant A28U C93G, the “polymerase ribozyme fitness (log ratio)” value was ≤ -4.2.

With A28G A49G C54U C85A U144G, the “polymerase ribozyme fitness (log ratio)” value is ≤ -4.2.

Take A28U C69A C75U U139G: the “polymerase ribozyme fitness (log ratio)” value is ≤ -4.2.

For A28U U31C A91G C108U G136U A142G, the “polymerase ribozyme fitness (log ratio)” value was ≤ -4.2.

Regarding A26U G83C G128A U134G U135A U146C, the “polymerase ribozyme fitness (log ratio)” value is ≤ -4.2.

Consider C27U G70C A138G, for which the “polymerase ribozyme fitness (log ratio)” value was ≤ -4.2.

As for C27G G58U C76A G86A U90C A106U C125U G136C, the “polymerase ribozyme fitness (log ratio)” value is ≤ -4.2.

Turning to C27A C79U, the “polymerase ribozyme fitness (log ratio)” value is ≤ -4.2.

As for A28U C54G C69U C79U A91U U134G, the “polymerase ribozyme fitness (log ratio)” value was ≤ -4.2.

Turning to A28U C96A A121U U148C, the “polymerase ribozyme fitness (log ratio)” value was ≤ -4.2.

Take A28C C87A A107C: the “polymerase ribozyme fitness (log ratio)” value is ≤ -4.2.

As to C27G A40C A66G C79U A91C, the “polymerase ribozyme fitness (log ratio)” value is -4.03.

For the variant A28U U45A U78G G81C C116G G136U, the “polymerase ribozyme fitness (log ratio)” value was ≤ -4.2.

Consider C27G C96U, for which the “polymerase ribozyme fitness (log ratio)” value was -3.97.

With A26C C27G A52C G80U A89G, the “polymerase ribozyme fitness (log ratio)” value is ≤ -4.2.

On to C27U G46A C54U C85G, for which the “polymerase ribozyme fitness (log ratio)” value was -3.63.

A28U U44A U55A U77G A120U: the “polymerase ribozyme fitness (log ratio)” value was ≤ -4.2.

For A28G U44A U45A C76G U111C G133U, the “polymerase ribozyme fitness (log ratio)” value was ≤ -4.2.

As to C27G C38A G42A G62A G68A A122C G128A U146G, the “polymerase ribozyme fitness (log ratio)” value was -4.01.

As to G25U C43U U61A G84U C85A A89U C93A C103A G141U, the “polymerase ribozyme fitness (log ratio)” value is ≤ -4.2.

For the variant A28G A37U C57A C123U G143C, the “polymerase ribozyme fitness (log ratio)” value is ≤ -4.2.

Regarding A28C A30U, the “polymerase ribozyme fitness (log ratio)” value was -3.88.

Turning to A26C C123G G141U, the “polymerase ribozyme fitness (log ratio)” value is -2.47.

A26U C69U: the “polymerase ribozyme fitness (log ratio)” value is -1.87.

Take C27G A52G U53A G100A: the “polymerase ribozyme fitness (log ratio)” value was ≤ -4.2.

In the case of C27G C95U, the “polymerase ribozyme fitness (log ratio)” value was -3.51.

For A26U C54G C87G A106G U130G, the “polymerase ribozyme fitness (log ratio)” value is ≤ -4.2.

Regarding C27A U44A U55A A66G C87U C95G A110G C114U U144A, the “polymerase ribozyme fitness (log ratio)” value is ≤ -4.2.

A28G U53A U144G: the “polymerase ribozyme fitness (log ratio)” value is ≤ -4.2.

For A26U U45A A47C U61G C79G G80U A122G C129G, the “polymerase ribozyme fitness (log ratio)” value is ≤ -4.2.

As to A26G C32A C35A G59U U90C C93G U146G, the “polymerase ribozyme fitness (log ratio)” value is ≤ -4.2.

Regarding G25U A98U, the “polymerase ribozyme fitness (log ratio)” value was -3.03.

With A26C U55G G59C, the “polymerase ribozyme fitness (log ratio)” value was -2.72.

Turning to G25U G50U C76A C85U G86C G133C, the “polymerase ribozyme fitness (log ratio)” value is ≤ -4.2.

As to A28U C32A G50C C96A A106G U127G, the “polymerase ribozyme fitness (log ratio)” value was ≤ -4.2.

Regarding A26U U55G, the “polymerase ribozyme fitness (log ratio)” value was -1.36.

Take A26U U55A: the “polymerase ribozyme fitness (log ratio)” value is -1.66.

Take A26U C38A: the “polymerase ribozyme fitness (log ratio)” value is -2.37.

On to A28U G92C A113U, for which the “polymerase ribozyme fitness (log ratio)” value was ≤ -4.2.

With A28U C36A A47G G59A C85A C129U U145A, the “polymerase ribozyme fitness (log ratio)” value was ≤ -4.2.

As to A28C C38A G48C A73G U144C, the “polymerase ribozyme fitness (log ratio)” value was ≤ -4.2.

In the case of C27A U56G A60U G86U A97G U111G C132A U135G, the “polymerase ribozyme fitness (log ratio)” value is ≤ -4.2.

As for A26G A97G, the “polymerase ribozyme fitness (log ratio)” value was -3.72.

As for A26U G34U G88C C105U U130A, the “polymerase ribozyme fitness (log ratio)” value is ≤ -4.2.

As to C27U A52C C85G C116G G128U A137G, the “polymerase ribozyme fitness (log ratio)” value was ≤ -4.2.

Turning to G25U C51U A73U C76U G83U C95U C96U G100U C118G A122G, the “polymerase ribozyme fitness (log ratio)” value is ≤ -4.2.

A28C C32U U45A U61G U78G G92C C93A U101G C132A A150C: the “polymerase ribozyme fitness (log ratio)” value is ≤ -4.2.

Turning to A28G A66C C79U G92U U148C, the “polymerase ribozyme fitness (log ratio)” value was -3.86.

On to C27G U61A A66G C76A C85A G141A, for which the “polymerase ribozyme fitness (log ratio)” value was ≤ -4.2.

For the variant A26U U55G U56A C87U C96U, the “polymerase ribozyme fitness (log ratio)” value was -3.35.

As to A26U A40U A120U, the “polymerase ribozyme fitness (log ratio)” value is -2.33.

With A28U G48C C85A A97U A122G G143A U146C, the “polymerase ribozyme fitness (log ratio)” value was ≤ -4.2.

On to C27G U61A C93U C95U A97U G133U, for which the “polymerase ribozyme fitness (log ratio)” value was ≤ -4.2.

With A28G U55A G58C A122G, the “polymerase ribozyme fitness (log ratio)” value is ≤ -4.2.

Turning to C27U C36A A39C A41G G68A C93A A138G U139A, the “polymerase ribozyme fitness (log ratio)” value is ≤ -4.2.

As for C27U U55G C85U A89U, the “polymerase ribozyme fitness (log ratio)” value is -2.33.

C27U A30C C87G G128A C131A U134C G141U: the “polymerase ribozyme fitness (log ratio)” value is -4.13.

On to C27A U134G U139A, for which the “polymerase ribozyme fitness (log ratio)” value was ≤ -4.2.

Regarding A26U C87U G141U, the “polymerase ribozyme fitness (log ratio)” value was -1.66.

As for A28G G86U, the “polymerase ribozyme fitness (log ratio)” value was -3.52.

As for G25U U53A A91C G92A C105G G141C, the “polymerase ribozyme fitness (log ratio)” value is ≤ -4.2.

A26U C27A A29U G34A U61A C76G: the “polymerase ribozyme fitness (log ratio)” value was ≤ -4.2.

Turning to A28U C35A A41U U53A G59A C85U G128A, the “polymerase ribozyme fitness (log ratio)” value is ≤ -4.2.

Regarding C27U G84A G88A, the “polymerase ribozyme fitness (log ratio)” value is -4.04.

Turning to A26C A29U C54G A91G A97U, the “polymerase ribozyme fitness (log ratio)” value was ≤ -4.2.

A28U G70C A91G G133C: the “polymerase ribozyme fitness (log ratio)” value was ≤ -4.2.

Turning to A28C A40G G59U C87G A110G G143U G152C, the “polymerase ribozyme fitness (log ratio)” value is ≤ -4.2.

The values are drawn from the RNAGym collection of RNA variant scans (doi:10.1073/pnas.2313332121).
